T1: MORT-1 (Homo sapiens, UniProt Q13158, G32V)
T1 sequence (Q13158 with tags, fused parts or gaps G32V): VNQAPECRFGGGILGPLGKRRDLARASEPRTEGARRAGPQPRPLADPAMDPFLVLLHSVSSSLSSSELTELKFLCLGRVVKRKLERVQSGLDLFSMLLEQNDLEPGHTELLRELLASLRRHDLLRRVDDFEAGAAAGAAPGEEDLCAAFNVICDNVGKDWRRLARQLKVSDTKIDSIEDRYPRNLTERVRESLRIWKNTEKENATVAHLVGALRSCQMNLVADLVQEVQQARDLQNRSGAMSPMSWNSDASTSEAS

B1: MORT-1: Mediator of Receptor-induced Toxicity; protein binding the intracellular domain of FAS-R, SEQ ID NO:2 (protein)
chain: T1 sequence (Q13158 with tags, fused parts or gaps G32V)
B2: MACHβ1: MACH isoform, cDNA SEQ ID NO: 4, amino acid SEQ ID NO: 5; lacks the CED3/ICE homology region (protein)
chain: MDFSRNLYDIGEQLDSEDLASLKFLSLDYIPQRKQEPIKDALMLFQRLQEKRMLEESNLSFLKELLFRINRLDLLITYLNTRKEEMERELQTPGRAQISAYRVMLYQISEEVSRSELRSFKFLLQEEISKCKLDDDMNLLDIFIEMEKRVILGEGKLDILKRVCAQINKSLLKIINDYEEFSKERSSSLEGSPDEFSNDFGQSLPNEKQTSGILSDHQQSQFCKSTGESAQTSQH

Molecular target: T1, MORT-1
Test: Two-hybrid β-galactosidase expression filter assay in SFY526 yeast, DNA-binding domain hybrid MORT-1
Set-up: the full-length MORT-1 cDNA was used (MORT 1); expressed in transfected cells; host or cells: SFY526 yeast
Conditions: substance as activation domain hybrid
Excerpt: To isolate proteins interacting with the intracellular domain of the FAS-R, the yeast two-hybrid system was used (Fields and Song, 1989). […] In this system, the genes for the candidate interacting proteins are cloned into separate expression vectors. In one expression vector, the sequence of the one candidate protein is cloned in phase with the sequence of the GAL4 DNA-binding domain to generate a hybrid protein with the GAL4 DNA-binding-domain, and in the other vector, the sequence of the second candidate protein is cloned in phase with the sequence of the GAL4 activation domain to generate a hybrid protein with the GAL4-activation domain. The two hybrid vectors are then co-transformed into a yeast host strain having a lacZ or HIS3 reporter gene under the control of upstream GAL4 binding sites. Only those transformed host cells (cotransformants) in which the two hybrid proteins are expressed and are capable of interacting with each other, will be capable of expressing the reporter gene. […]
The yeast two-hybrid test was further applied to evaluate the specificity of binding of MACH to MORT-1, in particular, to define the region in MORT-1 to which MACH binds, as well as to determine which of the MACH ORFs interacts with MORT-1, the procedures being as set forth herein above in Examples 1 and 2. Briefly, various MORT-1 and MACH constructs were prepared for testing the interaction of the proteins encoded by the Gal4 DNA-binding domain and activation domain constructs within transfected SFY526 yeast cells as assessed by the β-galactosidase expression filter assay. […] In the assay, the development of color was determined, where the greater the color development, the greater the interaction between the constructs encoded by the DNA-binding domain and activation domain; Color development was depicted by symbols, where “+++” and “+” indicate the development of a strong color within 30 and 90 min. of the assay, respectively, and “−−−” indicates the lack of development of color within 24 hrs. of the assay. […]

| Molecule | development of color (interaction with DNA-binding domain hybrid) |
| --- | --- |
| B1 | +++ (“+++” and “+” indicate the development of a strong color within 30 and 90 min. of the assay, respectively) |
| B2 | +++ (“+++” and “+” indicate the development of a strong color within 30 and 90 min. of the assay, respectively) |

From patent publication US7799901B2, “Modulators of the function of FAS receptors and other proteins” (Yeda Research and Development Co. Ltd., priority 1995, dated 2010)
